Test results as given in patent publication US20190177366A1 (published 2019).
Numbered stars: 1 amine (or outer) side, 2 acyl side, 3 side chain; on linkers, the order of the positions; unused ones are H or OH. Bridge positions count the residues as written; N and C are the ends. Square brackets hold non-standard residues; d marks the D form. Primed or numbered codes have the meaning given here. NH(CH2)9CO = O=C(CCCCCCCCCN[*:1])[*:2]; NH(CH2)8CO = O=C(CCCCCCCCN[*:1])[*:2]; hArg = N=C(N)NCCCC[C@H](N)C(=O)O; Cit = NC(=O)NCCC[C@H](N)C(=O)O; Aun = NCCCCCCCCCCC(=O)O; Hyp′ = 3-hydroxyproline; Aoc = NCCCCCCCC(=O)O; Ahp = NCCCCCCC(=O)O; Ahx = NCCCCCC(=O)O; Ava = NCCCCC(=O)O

B1: Compound 100 (peptide)
peptide: Ac-CRLPWNLQRIG[dL]PC-NH2
modifications: disulfide 1-14
SMILES: CC[C@H](C)[C@@H]1NC(=O)[C@H](CCCNC(=N)N)NC(=O)[C@H](CCC(N)=O)NC(=O)[C@H](CC(C)C)NC(=O)[C@H](CC(N)=O)NC(=O)[C@H](Cc2c[nH]c3ccccc23)NC(=O)[C@@H]2CCCN2C(=O)[C@H](CC(C)C)NC(=O)[C@H](CCCNC(=N)N)NC(=O)[C@@H](NC(C)=O)CSSC[C@@H](C(N)=O)NC(=O)[C@@H]2CCCN2C(=O)[C@@H](CC(C)C)NC(=O)CNC1=O
B2: Compound 101 (peptide)
peptide: Ac-CRLPWNLQR[dI]GLPC-NH2
modifications: disulfide 1-14
SMILES: CC[C@@H](C)[C@H]1NC(=O)[C@H](CCCNC(=N)N)NC(=O)[C@H](CCC(N)=O)NC(=O)[C@H](CC(C)C)NC(=O)[C@H](CC(N)=O)NC(=O)[C@H](Cc2c[nH]c3ccccc23)NC(=O)[C@@H]2CCCN2C(=O)[C@H](CC(C)C)NC(=O)[C@H](CCCNC(=N)N)NC(=O)[C@@H](NC(C)=O)CSSC[C@@H](C(N)=O)NC(=O)[C@@H]2CCCN2C(=O)[C@H](CC(C)C)NC(=O)CNC1=O
B3: Compound 102 (peptide)
peptide: Ac-CRLPWNLQ[dR]IGLPC-NH2
modifications: disulfide 1-14
SMILES: CC[C@H](C)[C@@H]1NC(=O)[C@@H](CCCNC(=N)N)NC(=O)[C@H](CCC(N)=O)NC(=O)[C@H](CC(C)C)NC(=O)[C@H](CC(N)=O)NC(=O)[C@H](Cc2c[nH]c3ccccc23)NC(=O)[C@@H]2CCCN2C(=O)[C@H](CC(C)C)NC(=O)[C@H](CCCNC(=N)N)NC(=O)[C@@H](NC(C)=O)CSSC[C@@H](C(N)=O)NC(=O)[C@@H]2CCCN2C(=O)[C@H](CC(C)C)NC(=O)CNC1=O
B4: Compound 103 (peptide)
peptide: Ac-CRLPWNL[dQ]RIGLPC-NH2
modifications: disulfide 1-14
SMILES: CC[C@H](C)[C@@H]1NC(=O)[C@H](CCCNC(=N)N)NC(=O)[C@@H](CCC(N)=O)NC(=O)[C@H](CC(C)C)NC(=O)[C@H](CC(N)=O)NC(=O)[C@H](Cc2c[nH]c3ccccc23)NC(=O)[C@@H]2CCCN2C(=O)[C@H](CC(C)C)NC(=O)[C@H](CCCNC(=N)N)NC(=O)[C@@H](NC(C)=O)CSSC[C@@H](C(N)=O)NC(=O)[C@@H]2CCCN2C(=O)[C@H](CC(C)C)NC(=O)CNC1=O
notes: also called Ac-CRLPWNLqRIGLPC-NH2
B5: Compound 104 (peptide)
peptide: Ac-CRLPWN[dL]QRIGLPC-NH2
modifications: disulfide 1-14
SMILES: CC[C@H](C)[C@@H]1NC(=O)[C@H](CCCNC(=N)N)NC(=O)[C@H](CCC(N)=O)NC(=O)[C@@H](CC(C)C)NC(=O)[C@H](CC(N)=O)NC(=O)[C@H](Cc2c[nH]c3ccccc23)NC(=O)[C@@H]2CCCN2C(=O)[C@H](CC(C)C)NC(=O)[C@H](CCCNC(=N)N)NC(=O)[C@@H](NC(C)=O)CSSC[C@@H](C(N)=O)NC(=O)[C@@H]2CCCN2C(=O)[C@H](CC(C)C)NC(=O)CNC1=O
notes: also called Ac-CRLPWNlQRIGLPC-NH2
B6: Compound 105 (peptide)
peptide: Ac-CRLPW[dN]LQRIGLPC-NH2
modifications: disulfide 1-14
SMILES: CC[C@H](C)[C@@H]1NC(=O)[C@H](CCCNC(=N)N)NC(=O)[C@H](CCC(N)=O)NC(=O)[C@H](CC(C)C)NC(=O)[C@@H](CC(N)=O)NC(=O)[C@H](Cc2c[nH]c3ccccc23)NC(=O)[C@@H]2CCCN2C(=O)[C@H](CC(C)C)NC(=O)[C@H](CCCNC(=N)N)NC(=O)[C@@H](NC(C)=O)CSSC[C@@H](C(N)=O)NC(=O)[C@@H]2CCCN2C(=O)[C@H](CC(C)C)NC(=O)CNC1=O
B7: Compound 106 (peptide)
peptide: Ac-CRLP[dW]NLQRIGLPC-NH2
modifications: disulfide 1-14
SMILES: CC[C@H](C)[C@@H]1NC(=O)[C@H](CCCNC(=N)N)NC(=O)[C@H](CCC(N)=O)NC(=O)[C@H](CC(C)C)NC(=O)[C@H](CC(N)=O)NC(=O)[C@@H](Cc2c[nH]c3ccccc23)NC(=O)[C@@H]2CCCN2C(=O)[C@H](CC(C)C)NC(=O)[C@H](CCCNC(=N)N)NC(=O)[C@@H](NC(C)=O)CSSC[C@@H](C(N)=O)NC(=O)[C@@H]2CCCN2C(=O)[C@H](CC(C)C)NC(=O)CNC1=O
B8: Compound 107 (peptide)
peptide: Ac-CRL[dP]WNLQRIGLPC-NH2
modifications: disulfide 1-14
SMILES: CC[C@H](C)[C@@H]1NC(=O)[C@H](CCCNC(=N)N)NC(=O)[C@H](CCC(N)=O)NC(=O)[C@H](CC(C)C)NC(=O)[C@H](CC(N)=O)NC(=O)[C@H](Cc2c[nH]c3ccccc23)NC(=O)[C@H]2CCCN2C(=O)[C@H](CC(C)C)NC(=O)[C@H](CCCNC(=N)N)NC(=O)[C@@H](NC(C)=O)CSSC[C@@H](C(N)=O)NC(=O)[C@@H]2CCCN2C(=O)[C@H](CC(C)C)NC(=O)CNC1=O
B9: Compound 117 (peptide)
peptide: Ac-CRLPWNLQ[hArg]IGLPC-NH2
modifications: disulfide 1-14
SMILES: CC[C@H](C)[C@@H]1NC(=O)[C@H](CCCCNC(=N)N)NC(=O)[C@H](CCC(N)=O)NC(=O)[C@H](CC(C)C)NC(=O)[C@H](CC(N)=O)NC(=O)[C@H](Cc2c[nH]c3ccccc23)NC(=O)[C@@H]2CCCN2C(=O)[C@H](CC(C)C)NC(=O)[C@H](CCCNC(=N)N)NC(=O)[C@@H](NC(C)=O)CSSC[C@@H](C(N)=O)NC(=O)[C@@H]2CCCN2C(=O)[C@H](CC(C)C)NC(=O)CNC1=O
B10: Compound 83 (peptide)
peptide: Ac-CRLPWNLQR[Aun]C-NH2
modifications: disulfide 1-11
SMILES: CC(=O)N[C@H]1CSSC[C@@H](C(N)=O)NC(=O)CCCCCCCCCCNC(=O)[C@H](CCCNC(=N)N)NC(=O)[C@H](CCC(N)=O)NC(=O)[C@H](CC(C)C)NC(=O)[C@H](CC(N)=O)NC(=O)[C@H](Cc2c[nH]c3ccccc23)NC(=O)[C@@H]2CCCN2C(=O)[C@H](CC(C)C)NC(=O)[C@H](CCCNC(=N)N)NC1=O
B11: Compound 84 (peptide)
peptide: Ac-CRLPWNLQR[NH(CH2)9CO]C-NH2
modifications: disulfide 1-11
SMILES: CC(=O)N[C@H]1CSSC[C@@H](C(N)=O)NC(=O)CCCCCCCCCNC(=O)[C@H](CCCNC(=N)N)NC(=O)[C@H](CCC(N)=O)NC(=O)[C@H](CC(C)C)NC(=O)[C@H](CC(N)=O)NC(=O)[C@H](Cc2c[nH]c3ccccc23)NC(=O)[C@@H]2CCCN2C(=O)[C@H](CC(C)C)NC(=O)[C@H](CCCNC(=N)N)NC1=O
B12: Compound 85 (peptide)
peptide: Ac-CRLPWNLQR[NH(CH2)8CO]C-NH2
modifications: disulfide 1-11
SMILES: CC(=O)N[C@H]1CSSC[C@@H](C(N)=O)NC(=O)CCCCCCCCNC(=O)[C@H](CCCNC(=N)N)NC(=O)[C@H](CCC(N)=O)NC(=O)[C@H](CC(C)C)NC(=O)[C@H](CC(N)=O)NC(=O)[C@H](Cc2c[nH]c3ccccc23)NC(=O)[C@@H]2CCCN2C(=O)[C@H](CC(C)C)NC(=O)[C@H](CCCNC(=N)N)NC1=O
B13: Compound 86 (peptide)
peptide: Ac-CRLPWNLQR[Aoc]C-NH2
modifications: disulfide 1-11
SMILES: CC(=O)N[C@H]1CSSC[C@@H](C(N)=O)NC(=O)CCCCCCCNC(=O)[C@H](CCCNC(=N)N)NC(=O)[C@H](CCC(N)=O)NC(=O)[C@H](CC(C)C)NC(=O)[C@H](CC(N)=O)NC(=O)[C@H](Cc2c[nH]c3ccccc23)NC(=O)[C@@H]2CCCN2C(=O)[C@H](CC(C)C)NC(=O)[C@H](CCCNC(=N)N)NC1=O
B14: Compound 115 (peptide)
peptide: Ac-CRLPWNLQRI[Ava]C-NH2
modifications: disulfide 1-12
SMILES: CC[C@H](C)[C@@H]1NC(=O)[C@H](CCCNC(=N)N)NC(=O)[C@H](CCC(N)=O)NC(=O)[C@H](CC(C)C)NC(=O)[C@H](CC(N)=O)NC(=O)[C@H](Cc2c[nH]c3ccccc23)NC(=O)[C@@H]2CCCN2C(=O)[C@H](CC(C)C)NC(=O)[C@H](CCCNC(=N)N)NC(=O)[C@@H](NC(C)=O)CSSC[C@@H](C(N)=O)NC(=O)CCCCNC1=O
B15: Compound 116 (peptide)
peptide: Ac-CRLPWNLQRI[Ahx]C-NH2
modifications: disulfide 1-12
SMILES: CC[C@H](C)[C@@H]1NC(=O)[C@H](CCCNC(=N)N)NC(=O)[C@H](CCC(N)=O)NC(=O)[C@H](CC(C)C)NC(=O)[C@H](CC(N)=O)NC(=O)[C@H](Cc2c[nH]c3ccccc23)NC(=O)[C@@H]2CCCN2C(=O)[C@H](CC(C)C)NC(=O)[C@H](CCCNC(=N)N)NC(=O)[C@@H](NC(C)=O)CSSC[C@@H](C(N)=O)NC(=O)CCCCCNC1=O
B16: Compound 121 (peptide)
peptide: Ac-CRLPWNLQRI[Ahp]C-NH2
modifications: disulfide 1-12
SMILES: CC[C@H](C)[C@@H]1NC(=O)[C@H](CCCNC(=N)N)NC(=O)[C@H](CCC(N)=O)NC(=O)[C@H](CC(C)C)NC(=O)[C@H](CC(N)=O)NC(=O)[C@H](Cc2c[nH]c3ccccc23)NC(=O)[C@@H]2CCCN2C(=O)[C@H](CC(C)C)NC(=O)[C@H](CCCNC(=N)N)NC(=O)[C@@H](NC(C)=O)CSSC[C@@H](C(N)=O)NC(=O)CCCCCCNC1=O
B17: Compound 36 (peptide)
peptide: Ac-SGCFIPWNLQ[Cit]IGLPC-NH2
modifications: disulfide 3-16
SMILES: CC[C@H](C)[C@@H]1NC(=O)[C@H](CCCNC(N)=O)NC(=O)[C@H](CCC(N)=O)NC(=O)[C@H](CC(C)C)NC(=O)[C@H](CC(N)=O)NC(=O)[C@H](Cc2c[nH]c3ccccc23)NC(=O)[C@@H]2CCCN2C(=O)[C@H]([C@@H](C)CC)NC(=O)[C@H](Cc2ccccc2)NC(=O)[C@@H](NC(=O)CNC(=O)[C@H](CO)NC(C)=O)CSSC[C@@H](C(N)=O)NC(=O)[C@@H]2CCCN2C(=O)[C@H](CC(C)C)NC(=O)CNC1=O

Target: T1, His-tagged, full-length PCSK9 (human, UniProt A8T644 31-152; Q8NBP7 153-692)
T1 construct: Target protein of the PCSK9/EGF(A) TR-FRET assay (10 nM); also called His-PCSK9; proprotein convertase subtilisin/kexin type 9
Assay: TR-FRET competition; competitor EGF(A)-Fc on His-PCSK9

T1 sequence (A8T644 31-152 limits assumed, chain 1 of 2): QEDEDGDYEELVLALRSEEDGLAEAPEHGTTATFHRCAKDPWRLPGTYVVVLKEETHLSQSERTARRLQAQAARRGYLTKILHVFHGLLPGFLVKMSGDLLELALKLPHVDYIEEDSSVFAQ
T1 sequence (A8T644 other isoform, or with tags, fused parts or gaps limits assumed, chain 2 of 2): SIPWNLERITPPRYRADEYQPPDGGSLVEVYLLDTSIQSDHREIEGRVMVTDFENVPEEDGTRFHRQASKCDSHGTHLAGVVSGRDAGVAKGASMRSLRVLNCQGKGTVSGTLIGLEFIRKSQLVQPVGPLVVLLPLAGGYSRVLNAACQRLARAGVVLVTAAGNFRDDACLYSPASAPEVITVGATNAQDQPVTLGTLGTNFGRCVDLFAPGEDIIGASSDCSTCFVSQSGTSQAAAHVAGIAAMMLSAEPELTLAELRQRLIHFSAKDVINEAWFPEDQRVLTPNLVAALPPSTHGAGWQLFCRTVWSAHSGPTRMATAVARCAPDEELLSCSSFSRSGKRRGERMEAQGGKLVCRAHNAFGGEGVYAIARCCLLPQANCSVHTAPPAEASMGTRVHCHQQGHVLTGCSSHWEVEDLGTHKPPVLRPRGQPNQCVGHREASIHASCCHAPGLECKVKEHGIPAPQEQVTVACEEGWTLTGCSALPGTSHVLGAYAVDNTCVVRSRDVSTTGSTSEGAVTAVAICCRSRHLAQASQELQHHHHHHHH

IC50, > 50 µM:
B1
B2
B3
B4
B5
B6
B7
B8
B9
B10
B11
B12
B13
B14
B15
B16
B17
Ac-SGCRL[Hyp′]WNLQRIGLPC-NH2 (disulfide 3-16) [Compound 37]
